Results reported in patent US6096502, “Substrate for detecting UL9 helicase activity” (Lee; Sam S.-K.).

Molecular target: UL9 protein (origin-binding protein/helicase) (UniProt P10193 P10193:1-851)
Experiment: EMSA; binding to Box I with attached ssDNA tails verified by gel mobility shift; substrate number not specified
Conditions: tags: none stated; baculovirus-infected Sf21 nuclear extract, 83 kDa; chain copies: 2 (homodimer on Box I, stated); label: 5'-32P on 44-mer; forked duplex with 18-nt 3' ssDNA tail and 10-nt 5' ssDNA tail

UL9 protein (origin-binding protein/helicase), sequence (P10193 whole entry, one chain of several): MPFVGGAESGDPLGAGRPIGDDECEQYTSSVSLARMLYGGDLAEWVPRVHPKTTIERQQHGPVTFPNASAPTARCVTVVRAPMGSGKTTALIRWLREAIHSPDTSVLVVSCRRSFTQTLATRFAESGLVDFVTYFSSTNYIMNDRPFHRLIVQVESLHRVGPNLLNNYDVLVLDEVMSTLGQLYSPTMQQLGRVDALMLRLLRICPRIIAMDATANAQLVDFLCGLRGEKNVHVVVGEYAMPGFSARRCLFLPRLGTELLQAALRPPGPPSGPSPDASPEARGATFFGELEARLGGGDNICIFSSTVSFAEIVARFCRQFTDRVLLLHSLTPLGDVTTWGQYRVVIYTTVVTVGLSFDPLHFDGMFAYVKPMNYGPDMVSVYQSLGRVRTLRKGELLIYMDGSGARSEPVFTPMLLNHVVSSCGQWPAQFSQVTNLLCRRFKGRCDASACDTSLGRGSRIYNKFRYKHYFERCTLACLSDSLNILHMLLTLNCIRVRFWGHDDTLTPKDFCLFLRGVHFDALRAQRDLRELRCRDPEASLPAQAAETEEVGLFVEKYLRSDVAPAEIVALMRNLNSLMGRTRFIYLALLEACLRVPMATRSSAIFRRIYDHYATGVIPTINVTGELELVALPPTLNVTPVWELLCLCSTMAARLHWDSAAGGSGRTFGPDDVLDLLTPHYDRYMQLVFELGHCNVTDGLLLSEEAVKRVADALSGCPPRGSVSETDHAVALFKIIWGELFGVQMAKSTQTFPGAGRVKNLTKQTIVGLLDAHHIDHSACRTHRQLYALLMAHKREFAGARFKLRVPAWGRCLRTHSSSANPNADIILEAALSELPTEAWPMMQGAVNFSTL

B1: Substrate I (18-nt 3' tail on first strand, 5' tail on second strand) (mixed)
DNA 1: CGCGAAGCGTTCGCACTTCGTCCCGCCTTCCTGCGCCTTCCTGT
DNA 2: CATGCTCGCAGCGGGACGAAGTGCGAACGCTTCGCG
binding result: binds
